Experimental findings from patent publication US20200087410A1 (GLYCOTOPE, published 2020) are described below.

The term Kd denotes the constant that tells how readily two partners part at equilibrium. Read a high Kd as weaker binding.

The test concerns the target T1, CD40 (immobilized CD40, antigen ELISA / surface plasmon resonance) (human, UniProt P25942 21-193, limits assumed).
T1 construct: also called TNFRSF5; TNF receptor super family member 5
As to the kind of experiment: immobilized CD40; screen by antigen ELISA and surface plasmon resonance (method of the KD not named). On the procedure: Following expression of the different constructs in NM-H9D8 and NM-H9D8-E6Q12 cells, the titer of the humanized antibody variants was determined and their concentration adjusted. Then, the humanized antibodies were screened in an antigen ELISA and via surface plasmon resonance.
(ELISA stands for enzyme-linked immunosorbent assay.)

T1 sequence (P25942 21-193 limits assumed): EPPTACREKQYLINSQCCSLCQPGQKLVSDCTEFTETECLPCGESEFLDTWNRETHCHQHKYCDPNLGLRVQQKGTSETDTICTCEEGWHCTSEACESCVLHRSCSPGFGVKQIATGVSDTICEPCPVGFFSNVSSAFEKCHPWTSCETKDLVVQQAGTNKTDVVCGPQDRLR

B1: humanized anti-CD40 antibody variant VH10/VL2 (as screened in Example 3) (antibody, V domains shown)
VH: EVQLVQSGAEVKKPGASVKISCKTSGYTFTEYIMHWVKQSPGKSLEWIGGIIPNNGGTSYNQKFKDRVTMTVDKSISTGYMELSRLRSDDTAVYYCTRREVYGRNYYALDYWGQGTLVTVSS
VL: DIQMTQSPSSLSASVGDRVTITCSASQGINNYLNWYQQKPGKAPKLLIYYTSSLHSGVPSRFSGSGSGTDYTFTISSLQPEDIATYYCQQYSNLPYTFGQGTKLEIKR
notes: Human gamma1 or gamma2 heavy constant region and human kappa constant region; also called hLob
Take B1: the equilibrium dissociation constant (Kd) was found to be 25 nM.
